This is an account of results in patent US7030231 (University of California, dated 2006).

Data set [1] has as its target T1, His-tagged MT-SP1 protease domain (refolded, autoactivated, purified on p-aminobenzamidine resin) (human, UniProt Q9Y5Y6 615-855).
T1 construct: The split 596-614 / 615-855 follows from the stated construct limits and the stated cleavage site; also called His-MT-SP1 protease domain; MT-SP1 His-tagged protease domain
T1 sequence 1: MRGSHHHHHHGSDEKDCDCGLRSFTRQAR
T1 sequence 2: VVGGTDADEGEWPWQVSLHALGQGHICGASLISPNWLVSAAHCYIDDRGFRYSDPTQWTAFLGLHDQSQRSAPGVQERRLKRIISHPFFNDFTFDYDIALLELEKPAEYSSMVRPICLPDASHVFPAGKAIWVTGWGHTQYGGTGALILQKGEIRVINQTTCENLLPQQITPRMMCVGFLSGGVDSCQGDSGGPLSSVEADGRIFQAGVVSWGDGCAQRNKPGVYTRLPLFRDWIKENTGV
Kind of data set: apparent Ki; inhibition of Spectrozyme tPA hydrolysis by 63 pM enzyme, fit to the tight-binding reversible inhibitor equation. As to the method: Ecotin and ecotin M84R/M85R were purified from *E. coli* as described in copending application Ser. Nos. 09/290,513 and 09/289,830, both filed on Apr. 12, 1999. Various concentrations of ecotin or ecotin M84R/M85R were incubated with the His-tagged serine protease domain in a total volume of 990 μL of buffer containing 50 mM NaCl, 50 mM Tris-HCl (pH 8.8), 0.01% Tween 20. 10 μL of Spectrozyme tPA was added, yielding a solution containing 100 μM substrate. The final enzyme concentration was 63 pM, and the ecotin and ecotin M84R/M85R concentration ranged from 0.1 nM to 50 nM. The data were fit to the equation derived for kinetics of reversible tight-binding inhibitors (Morrison (1969) *Biochim. Biophys. Acta* 185: 269–286, Williams and Morrison (1979) *Methods. Enzymol.* 63: 437–467), and the values for apparent K_i were determined.
The enzyme concentration was determined using an active site titration with MUGB. The catalytic activity of the protease domain was monitored using pNA substrates. Purified protease domain was tested for hydrolytic activity against tetrapeptide substrates of the form Suc-AAPX-pNA, which contained various amino acids at the P1 position (P1-Ala, Asp, Glu, Phe, Leu, Met, Lys, or Arg). The only substrates with detectable activity were those with P1-Lys or P1-Arg. The serine protease domain with the Ser^805Ala mutation had no detectable activity. […]

In data set [2] the target is T2, inactive Ser805Ala His-tagged MT-SP1 protease domain.
T2 chain: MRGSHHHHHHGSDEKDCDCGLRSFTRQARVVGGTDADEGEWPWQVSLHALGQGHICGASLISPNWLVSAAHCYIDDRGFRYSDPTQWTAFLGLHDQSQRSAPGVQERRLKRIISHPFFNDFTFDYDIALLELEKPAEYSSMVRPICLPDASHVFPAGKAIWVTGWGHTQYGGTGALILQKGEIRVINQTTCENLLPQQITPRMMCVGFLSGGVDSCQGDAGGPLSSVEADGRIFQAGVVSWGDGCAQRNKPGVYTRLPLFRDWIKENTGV

B1: ecotin M84R/M85R (other, E. coli (purified from E. coli), UniProt P23827 21-162, looked up)
chain: AESVQPLEKIAPYPQAEKGMKRQVIQLTPQEDESTLKVELLIGQTLEVDCNLHRLGGKLENKTLEGWGYDYYVFDKVSSPVSTRRACPDGKKEKKFVTAYLGDAGMLRYNSKLPIVVYTPDNVDVKYRVWKAEEKIDNAVVR
notes: They probably count on mature ecotin, not on the precursor with its signal peptide
Regarding B1, the Ki in data set [1] was determined as 9.8 pM.

B2: His-tagged MT-SP1 protease domain (refolded, autoactivated, purified on p-aminobenzamidine resin) (protein)
chain 1: MRGSHHHHHHGSDEKDCDCGLRSFTRQAR
chain 2: VVGGTDADEGEWPWQVSLHALGQGHICGASLISPNWLVSAAHCYIDDRGFRYSDPTQWTAFLGLHDQSQRSAPGVQERRLKRIISHPFFNDFTFDYDIALLELEKPAEYSSMVRPICLPDASHVFPAGKAIWVTGWGHTQYGGTGALILQKGEIRVINQTTCENLLPQQITPRMMCVGFLSGGVDSCQGDSGGPLSSVEADGRIFQAGVVSWGDGCAQRNKPGVYTRLPLFRDWIKENTGV
For B2, in data set [2], the “cleavage monitored by SDS-PAGE” value is “This treatment results in the formation of a cleavage product that corresponds to the size of the active protease”.
